B1: Chromatin assembly factor 1 subunit A (Schizosaccharomyces pombe (strain ATCC 38366 / 972)), Q1MTN9 (parent)
chain: MNSESVDSDVAASTSNKGNELCSSSTDITSLSVSSPNESVIHSSHSASEADEYVCKLSYEGNRKKRIYNGSAEAGKEKKLQKQRAQEERIRQKEAERLKREKERQQREQEKKLREQEKIAAKKMKELEKLEKERIRLQEQQRRKEERDQKLREKEEAQRLRQEQILNKERQQLKLNNFFTKGVEKRIAPNENFVADKTDELNEFEKEFRPFFIKHQMSLSKYPSPNESDSFLDEVLSTSKSYPLKLNDIFTPSDAVSSANSLGVSNRNSENEVRQLMSAYQDPSVSKPQEILSCLSQIPIKFIFFYQDVRPPYFGSYTKTHSHGSNVLLNPWLEDEDIDYTYDSEAEWVADEEDDGEDLESEDEEVDNSDDIVEDGDNAFVDDEDDDKDSVNASNTHRSSGPLEVIVEGPVWDSKFLPDFNCLSLIEPISSFSASTYLQIDPKEDLWASQDTAPASSGMTIGPTSSLSDDLQVRFPSEDIPKFIEYVRNSHDNKVFLIENLRHMFPYVTKNIISETLGKVAVRKGKSVSDGWIIKENFASLLSS
partner: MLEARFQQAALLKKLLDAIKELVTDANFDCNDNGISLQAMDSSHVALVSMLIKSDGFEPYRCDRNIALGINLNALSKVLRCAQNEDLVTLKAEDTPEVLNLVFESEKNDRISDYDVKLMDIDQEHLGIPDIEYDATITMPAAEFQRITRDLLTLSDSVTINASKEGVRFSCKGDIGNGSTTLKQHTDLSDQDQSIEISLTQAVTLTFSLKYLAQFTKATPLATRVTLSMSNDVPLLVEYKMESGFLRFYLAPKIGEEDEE

Variants of: B1
Conditions: with pcna_schpo pcn1, Q03392

Row | effect of a mutation on the interaction | Variant
1 | disrupting interaction strength | MNSESVDSDVAASTSNKGNELCSSSTDITSLSVSSPNESVIHSSHSASEADEYVCKLSYEGNRKKRIYNGSAEAGKEKKLQKQRAQEERIRQKEAERLKREKERQQREQEKKLREQEKIAAKKMKELEKLEKERIRLQEQQRRKEERDQKLREKEEAQRLRQEQILNKERQALKANNAATKGVEKRIAPNENFVADKTDELNEFEKEFRPFFIKHQMSLSKYPSPNESDSFLDEVLSTSKSYPLKLNDIFTPSDAVSSANSLGVSNRNSENEVRQLMSAYQDPSVSKPQEILSCLSQIPIKFIFFYQDVRPPYFGSYTKTHSHGSNVLLNPWLEDEDIDYTYDSEAEWVADEEDDGEDLESEDEEVDNSDDIVEDGDNAFVDDEDDDKDSVNASNTHRSSGPLEVIVEGPVWDSKFLPDFNCLSLIEPISSFSASTYLQIDPKEDLWASQDTAPASSGMTIGPTSSLSDDLQVRFPSEDIPKFIEYVRNSHDNKVFLIENLRHMFPYVTKNIISETLGKVAVRKGKSVSDGWIIKENFASLLSS [Q172A;L175A;F178A;F179A]

From IntAct's records for PubMed 25313826
